Patent US20240190964A1 (KYMAB, published 2024)

Molecular target: T1, human ICOS (inducible T-cell co-stimulator) (human, UniProt Q9Y6W8 21-199)
T1 construct: also called the ICOS receptor
T1 sequence: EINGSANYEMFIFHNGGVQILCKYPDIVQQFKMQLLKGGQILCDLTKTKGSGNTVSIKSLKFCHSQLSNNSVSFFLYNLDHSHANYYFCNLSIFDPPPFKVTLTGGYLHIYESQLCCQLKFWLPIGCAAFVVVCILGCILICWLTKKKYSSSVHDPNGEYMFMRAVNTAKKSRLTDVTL
Assay: ICOS receptor occupancy (free ICOS detection) on peripheral CD4 memory T cells in longitudinal PBMC samples, chipcytometry, patient dosed with KY1044 in vivo

binding result: binds
B1: KY1044 (aka STIM003), fully human IgG1 anti-ICOS antibody (antibody, V domains shown)
VH: EVQLVESGGGVVRPGGSLRLSCVASGVTFDDYGMSWVRQAPGKGLEWVSGINWNGGDTDYSDSVKGRFTISRDNAKNSLYLQMNSLRAEDTALYYCARDFYGSGSYYHVPFDYWGQGILVTVSS
VL: EIVLTQSPGTLSLSPGERATLSCRASQSVSRSYLAWYQQKRGQAPRLLIYGASSRATGIPDRFSGDGSGTDFTLSISRLEPEDFAVYYCHQYDMSPFTFGPGTKVDIKR
